Assays:
[1] = tested on: phospho-Ser^8-glucagon
[2] = tested on: phospho-Thr^5-glucagon
Sequence of phospho-Thr^5-glucagon (chain, as listed by the source): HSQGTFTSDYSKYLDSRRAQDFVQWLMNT

bovine alkaline phosphatase
Dephosphorylation T50 (mins.) pH 7.4 [1]: 94.9 min | Dephosphorylation T50 (mins.) pH 7.4 [2]: 85.9 min
